T1: human IL-2Rβ (human, UniProt P14784 27-240, limits assumed)
T1 construct: Recombinant human IL-2Rβ protein, coated on ELISA plates or immobilized on a CM5 chip; also called hu IL-2R; interleukin 2 receptor β-chain
T1 sequence: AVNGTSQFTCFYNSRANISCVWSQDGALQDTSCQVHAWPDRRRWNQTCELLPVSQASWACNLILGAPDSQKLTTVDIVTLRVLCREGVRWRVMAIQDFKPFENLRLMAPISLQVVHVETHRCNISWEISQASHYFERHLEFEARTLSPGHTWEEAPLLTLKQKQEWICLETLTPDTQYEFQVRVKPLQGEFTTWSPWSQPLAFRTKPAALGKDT

T2: mouse IL-2Rγ (mouse, UniProt P34902 23-263)
T2 construct: also called mo IL-2R
T2 sequence (looked up): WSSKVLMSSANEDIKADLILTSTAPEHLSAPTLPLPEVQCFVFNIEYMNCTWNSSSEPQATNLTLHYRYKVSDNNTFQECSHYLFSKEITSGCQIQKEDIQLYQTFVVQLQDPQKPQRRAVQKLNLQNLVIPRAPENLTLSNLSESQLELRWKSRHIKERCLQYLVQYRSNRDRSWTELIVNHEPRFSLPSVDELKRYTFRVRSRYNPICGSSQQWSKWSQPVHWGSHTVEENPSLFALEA

B1: FJ1427_P035MP06D05 (VHH)
VHH: QVQLVESGGGLVQAGGSLRLSCAVSGDVFVRYTMAWFRQAPGKEREFVASVTDSGRTTEYVDSVKGRFTVSRDNAKNTVYLQMNSLKPEDTAVYYCAANTDYFQIRSLRANTWGQGTQVTVSS
notes: Soluble VHH in periplasmic extract (P.E.); also called Clone nr
B2: FJ1427_P035MP06H03 (VHH)
VHH: QVQLVESGGGLVQAGGSLRLSCAVSGDVFVRYTMAWFRQAPGKEREFVASVTDSGRTTEYVDSVKGRFTVSRDNAKNTAYLQMNNLKPEDTAVYYCAANTDYFQIRSLDLNTWGQGTQVTVSS
notes: as for B1
B3: FJ1427_P035MP06E04 (VHH)
VHH: QVQLVESGGGLVQAGGSLRLSCAVSGDVFVRYTMAWFRQAPGKEREFVASVTDSGRTTEYVDSVKGRFTVSRDNAKNTAYLQMNNLKPEDTAVYYCAANTDYFQIRSLDLNTWGQGTQVTVSS
notes: as for B1
B4: FJ1427_P035MP06B04 (VHH)
VHH: QVQLVESGGGLVQAGGSLRLSCAVSGDVFVRYTMAWFRQAPGKEREFVASVTDSGRTTEYVDSVKGRFTVSRDNAKNTAYLQMNNLKPEDTAVYYCAANTDYFQIRSLDLNTWGQGTQVTVSS
notes: as for B1
B5: FJ1427_P035MP06C10 (VHH)
VHH: QVQLVESGGGLVQAGGSLRLSCAVSGDVFVRYTMAWFRQAPGKEREFVASVTDSGRTTEYVDSVKGRFTVSRDNAKNTAYLQMNNLKPEDTAVYYCAANTDYFQIRSLDLNTWGQGTQVTVSS
notes: Soluble VHH in periplasmic extract (P.E.); also called Clone nr; 555
B6: FJ1427_P035MP06H05 (VHH)
VHH: QVQLVESGGRLVQAGGSLRLSCVVSGDVFVRYTMAWFRQAPGKEREFVAVVTDSGRTTEYVGSVKGRFTVSRDNAKNTVYLQMNNLKPEDTAVYYCAANTDYFQIRSVDNNAWGQGTQVTVSS
notes: Soluble VHH in periplasmic extract (P.E.); also called Clone nr; 520
B7: FJ1427_P035MP06G04 (VHH)
VHH: QVQLQESGGGLVQAGGSLRLSCVVSGDVFVRYTMAWFRQAPGKEREFVAVVTDSGRTTEYVDSVKGRFTVSRDNAKNTVYLQMNNLKPEDTAVYYCAANTDYFQIRSVDNNAWGQGTQVTVSS
notes: as for B1
B8: FJ1427_P035MP06D06 (VHH)
VHH: EVQLVESGGGLVQAGGSLRLSCAVSGDVFVRYTMAWFRQAPGKEREFVASVTDSGRTTEYVDSVKGRFTVSRDNAKNTAYLQMNNLKPEDTAVYYCAANTDYFQIRSLDLNTWGQGTQVTVSS
notes: as for B1
B9: FJ1427_P035MP06G02 (VHH)
VHH: EVQLVESGGGLVQAGGSLRLSCVVSGDVFVRYTMAWFRQAPRKEREFVAVVTDSGRTTEYVDSVKGRFTVSRDNAKNTVYLQMNNLKPEDTAVYYCAANTDYFQIRSVDNNAWGQGTQVTVSS
notes: as for B1
B10: FJ1427_P035MP06G10 (VHH)
VHH: QVQLVESGGGLVQAGGSLRLSCAASGDVFVRYTMAWFRQAPGKEREFVASVTDSGRTTEYVDSVKGRFTVSRDNAKNTAYLQMNNLKPEDTAVYYCAANTDYFQIRSLNLNTWGQGTQVTVSS
notes: as for B1
B11: FJ1427_P035MP06E06 (VHH)
VHH: EVQLVESGGGLVQAGGSLRLFCAVSGDVFVRYTMAWFRQAPGKEREFVASVTDSGRTTEYVDSVKGRFTVSRDNAKDTAYLQMNNLKPEDTAVYYCAANTDYFQIRSLDLNTWGQGTQVTVSS
notes: Soluble VHH in periplasmic extract (P.E.); also called Clone nr; 525
B12: FJ1427_P035MP06F06 (VHH)
VHH: QVQLVESGGGLVQAGGSLRLSCAASGDVFVRYTMAWFRQAPGKEREFVASVTDSGRTTDYVDSVKGRFTVSRDNAKNTVYLQMNNLKPEDTAVYYCAANTDYFQIRSLEFNTWGQGTQVTVSS
notes: as for B1
B13: FJ1427_P035MP06H04 (VHH)
VHH: EVQLVESGGGLVQAGGSLRLSCAVSGDVFVRYTMAWFRQAPGKEREFVASVTDSGRTTEYVDSVKGRFTVSRDNAKNTAYLQMNNLKPEDTAVYYCAANTDYFQIRSLDLNTWGQGTQVTVSS
notes: as for B1
B14: FJ1427_P035MP06D07 (VHH)
VHH: QVQLVESGGGLVQAGGSLRLSCAASGDVFVRYTMAWFRQAPGKEREFVASVTDSGRTTEYVDSVKGRFTVSRDNAKNTAYLQMNNLKPEDTAIYYCAANTDYFQIRSLDLNTWGQGTQVTVSS
notes: Soluble VHH in periplasmic extract (P.E.); also called Clone nr; 532
B15: FJ1427_P035MP06F08 (VHH)
VHH: QVQLVESGGGLVQAGGSLRLSCAASGDVFVRYTMAWFRQAPGKEREFVASVTDSGRTTEYVDSVKGRFTVSRDNAKNTAYLQMNNLKPEDTAVYYCAANTDYFQIRSLNLNTWGQGTQVTVSS
notes: Soluble VHH in periplasmic extract (P.E.); also called Clone nr; 542
B16: FJ1427_P035MP06G08 (VHH)
VHH: QVQLQESGGGLVQAGGSLRLSCAASGDVFVRYTMAWFRQAPGKEREFVASVTDSGRTTEYVDSVKGRFTVSRDNAKNTAYLQMNNLKPEDTAVYYCAANTDYFQIRSLNLNTWGQGTQVTVSS
notes: Soluble VHH in periplasmic extract (P.E.); also called Clone nr; 543
B17: FJ1427_P035MP06H08 (VHH)
VHH: QVQLVESGGGLVQAGGSLRLSCAASGDVFVRYTMAWFRQAPGKEREFVASVTDSGRTTEYVDSVKGRFTVSRDNAKNTAYLQMNNLKPEDTAIYYCAANTDYFQIRSLDLNTWGQGTQVTVSS
notes: as for B1
B18: FJ1427_P035MP06E08 (VHH)
VHH: EVQLVESGGGLVQAGGSLRLSCAVSGDVFVRYTMAWFRQAPGKEREFVASVTDSGRTTEYVDSVKGRFTVSRDNAKNTAYLQMNNLKPEDTAVYYCAANTDYFQIRSLDLNTWGQGTQVTVSS
notes: as for B1
B19: FJ1427_P035MP06G03 (VHH)
VHH: QVQLVESGGGLVQAGGSLRLSCVVSGDVFVRYTMAWFRQAPGKEREFVAVVTDSGRTTEYVDSVKGRFTVSRDNAKNTVYLQMNNLKPEDTAVYYCAANTDYFQIRSVDNNAWGQGTQVTVSS
notes: Soluble VHH in periplasmic extract (P.E.); also called Clone nr; 503
B20: FJ1427_P035MP06F02 (VHH)
VHH: QVQLQESGGGLVQAGGSLRLSCAASGDVFVRYTMAWFRQAPGKEREFVASVTDSGRTTDYVDSVKGRFTVSRDNAKNTVYLQMNALKPEDTAVYYCAANTDYFQIKSLDLNTWGQGTQVTVSS
notes: as for B1
B21: FJ1427_P035MP06F09 (VHH)
VHH: QVQLVESGGGLVQAGGSLTLSCAASGRAFSNYPVGWFRQAPGKEREFVAAITWLSGSTLYADSVEGRFTISRDNAKNTVYLLMSSLKPEDTALYFCAAALKTITRGQNDYSYWGQGTQVTVSS
notes: Soluble VHH in periplasmic extract (P.E.); also called Clone nr; 550
B22: 31-MP04E03 (VHH)
VHH: QVQLVESGGGLVQAGGSLRLSCTGYGGAFTGYALGWFRQAPGKEREFVARINWSGSFTYYASSVKGRFTISRDNAKNTMYLQMNNLKPEDTAVYYCAADNPSTLATDYDNWGQGTQVTVSS
notes: VHH in periplasmic extract; also called FJ1427_P035MP04E03; clone nr
B23: FJ1427 P035MP06A08 (VHH)
VHH: EVQLVESGGGLVQAGESLRLSCAASGQYFSTYSMAWFRRTPGKEREFVTIISESGGIKEYVDSVKGRFTVSRDNAKNTVYLQMNSLKPEDTAVYYCAAARDWFARNEYQYDYWGQGTQVTVSS
notes: as for B1

Experiments:
human IL-2Rβ [1] = biological target: T1, human IL-2Rβ; assay: SPR off-rate ranking of P.E., human IL-2Rβ immobilized
Protocol: SPR was performed to determine dissociation rates using Biacore 3000 instrument (GE Healthcare). Briefly, human and mouse IL-2R proteins were immobilized on carboxylmethyl dextran sensor chip (CM5) at approximately 2500 RUs using amine coupling in acetate buffer (GE Healthcare). The VHH-containing P.E. were loaded with a flow rate of 30 uL/min and the off-rates were measured over a 120s period.

human IL-2Rβ [2] = biological target: T1, human IL-2Rβ; assay: P.E. binding ELISA, human IL-2Rβ coated
Protocol: In a binding ELISA, human or mouse IL-2Rα, IL-2Rβ and IL-2Rγ proteins were coated directly on maxisorp microtiter plates overnight at 4° C. Free binding sites were blocked using 4% Marvel in PBS for 1 hour. Next, 1:5 dilution of P.E. in 1% Marvel/PBS were added to wells and incubated for 1 hour. […] Binding specificity was determined based on O.D. at 450 nm values compared to negative controls.

mouse IL-2Rγ [3] = biological target: T2, mouse IL-2Rγ; assay: PE binding ELISA, periplasmic extract on coated protein
In short: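 Plates were coated overnight at 4° C with human or mouse IL-2R chain protein, and free sites blocked for 1 hour in 4% Marvel in PBS. Periplasmic extracts diluted 1:5 in 1% Marvel/PBS then bound for 1 hour, with specificity assessed from 450 nm absorbance relative to negative controls.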

mouse IL-2Rγ [4] = biological target: T2, mouse IL-2Rγ; assay: SPR off-rate ranking, periplasmic extract on immobilised protein
In short: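 Dissociation rates of nanobody (VHH) periplasmic extracts were measured across a 120s window on an amine-coupled carboxymethyl dextran surface bearing about 2500 RUs of receptor; injection flow 30 uL/min.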

| Binder | koff (human IL-2Rβ [1]) [s⁻¹] | OD450 nm (P.E. binding ELISA) (human IL-2Rβ [2]) [OD450 nm] | OD (PE binding ELISA) (mouse IL-2Rγ [3]) [OD450 nm] | koff (mouse IL-2Rγ [4]) [s⁻¹] |
| --- | --- | --- | --- | --- |
| B1 | 0.000483 | 0.304 |  |  |
| B2 | 0.000196 | 0.239 |  |  |
| B3 | 0.000198 | 0.974 |  |  |
| B4 | 0.000188 | 0.935 |  |  |
| B5 | 0.000208 | 0.358 |  |  |
| B6 | 0.000885 | 0.59 |  |  |
| B7 | 0.000641 | 0.213 |  |  |
| B8 | 0.00029 | 0.289 |  |  |
| B9 | 0.000619 | 0.677 |  |  |
| B10 | 0.000261 | 1 |  |  |
| B11 | 0.000241 | 1.45 |  |  |
| B12 | 0.000935 | 0.224 |  |  |
| B13 | 0.000245 | 1.02 |  |  |
| B14 | 0.000346 | 0.957 |  |  |
| B15 | 0.000274 | 0.343 |  |  |
| B16 | 0.000286 | 0.255 |  |  |
| B17 | 0.000349 | 0.313 |  |  |
| B18 | 0.000267 | 0.359 |  |  |
| B19 | 0.000586 | 0.267 |  |  |
| B20 | 0.00037 | 0.278 |  |  |
| B21 | 0.000147 | 0.564 |  |  |
| B22 |  |  | 0.495 | 0.283 |
| B23 | 0.000497 | 0.44 |  |  |

Source: US20240409645A1 (DUALYX, published 2024)
